Drawing on patent publication US20210270842A1 (DYAX, published 2021), this text covers EC50 for one molecule.

The target of test [1] is T1, cleaved high molecular weight kininogen (HMWK) (human, UniProt P01042 19-380; P01042 390-644).
T1 construct: also called cleaved HMWK; 2-chain HMWK
T1 sequence 1: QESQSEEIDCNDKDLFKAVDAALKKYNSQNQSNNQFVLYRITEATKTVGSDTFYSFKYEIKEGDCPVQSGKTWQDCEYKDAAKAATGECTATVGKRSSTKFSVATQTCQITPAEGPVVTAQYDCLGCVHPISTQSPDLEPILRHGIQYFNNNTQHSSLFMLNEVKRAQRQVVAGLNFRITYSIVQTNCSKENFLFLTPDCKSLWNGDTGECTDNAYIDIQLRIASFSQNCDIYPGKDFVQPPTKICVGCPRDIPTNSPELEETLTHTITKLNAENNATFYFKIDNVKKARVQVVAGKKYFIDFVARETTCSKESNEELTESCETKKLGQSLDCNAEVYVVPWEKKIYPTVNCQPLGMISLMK
T1 sequence 2: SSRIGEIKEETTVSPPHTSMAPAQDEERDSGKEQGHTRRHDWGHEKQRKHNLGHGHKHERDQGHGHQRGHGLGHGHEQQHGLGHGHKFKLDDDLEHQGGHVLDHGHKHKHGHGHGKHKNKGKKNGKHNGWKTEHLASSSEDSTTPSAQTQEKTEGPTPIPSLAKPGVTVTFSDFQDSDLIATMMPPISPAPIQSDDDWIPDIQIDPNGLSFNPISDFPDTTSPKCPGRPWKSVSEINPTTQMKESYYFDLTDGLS
Put plainly: ELISA on coated M004-B04, 2-chain HMWK (in deficient plasma, diluted) titrated, no peptide (control); value = C, midpoint of the printed 4-P fit. Here is the method: (§1) Following plate washing with PBST, a mixture of 2 mouse monoclonal antibodies (11H05 and 13B12) at 1 μg/mL in 2-chain HMWK assay buffer were added for 1 hour at room temperature. Unbound detection antibodies were washed and a 1:2000 dilution of goat anti-mouse secondary antibody conjugated to horseradish peroxidase (HRP) was added. The assay containing the secondary antibody was incubated for 1 hour at room temperature, and unbound secondary antibody was removed by washing with 2-chain HMWK assay buffer. Signal was detected by the addition of 3,3′,5,5′-tetramethylbenzidine (TMB), an HRP substrate. The reaction was stopped with phosphoric acid. Hydrolysis of a TMB substrate was detected using a microplate reader at 450 nm-630 nm (FIG. 3). […] Using these immunoassay conditions, specifically binding to cleaved HMWK was detected.
(§2) To perform the assay, the kininogen peptides were diluted to 250 μg/mL and allowed to preincubate on assay plate. Then, purified 2-chain HMWK in deficient human plasma was diluted 160 and then added to plate.
For orientation: In an ELISA, binding on a coated surface is turned into a signal by an enzyme label.

The target in test [2] is T1, cleaved high molecular weight kininogen …. The test is described as follows: sandwich ELISA: Fab coated on 96-well plate, kininogen titrated, detection 11H05 + 13B12 and goat anti-mouse-HRP; value = C, midpoint of the printed 4-P fit; 2-chain HMWK spiked into HMWK-deficient plasma. The source says:
(§3) Purified cleaved HMWK was spiked into SBT assay buffer (circles) or HMWK-deficient plasma (squares). Purified intact HMWK was spiked into SBT assay buffer (triangles). Purified LMWK was spiked into SBT assay buffer (diamonds). The y-axis presents the ELISA signal in absorbance units, and the x-axis presents the concentration of kininogen in μg/mL.
(§4) The following day, the plate was washed and then blocked with 2% BSA (Protease/IgG free) in PBS buffer. Following a wash, samples containing cleaved HMWK in 0.1% BSA buffer in PBS with 0.05% Tween-20 (2-Chain HMWK assay buffer). Purified protein standards (e.g., 2-chain HMWK, intact HMWK or LMWK) were spiked into HMWK-deficient plasma and diluted 1:320 in 2-chain HMWK assay buffer. Following plate washing with PBST, a mixture of 2 mouse monoclonal antibodies (11H05 and 13B12) at 1 μg/mL in 2-chain HMWK assay buffer were added for 1 hour at room temperature. Unbound detection antibodies were washed and a 1:2000 dilution of goat anti-mouse secondary antibody conjugated to horseradish peroxidase (HRP) was added. […] Signal was detected by the addition of 3,3′,5,5′-tetramethylbenzidine (TMB), an HRP substrate. […] Hydrolysis of a TMB substrate was detected using a microplate reader at 450 nm-630 nm (FIG. 3). […] Using these immunoassay conditions, specifically binding to cleaved HMWK was detected.

The target is the same in test [3]. The test is described as follows: ELISA on coated M004-B04, 2-chain HMWK titrated after preincubation of the plate with GCP28 peptide at 250 µg/mL; value = C of the printed 4-P fit; triangles, curve on the control's (the callout box on the graph names this curve HKH20: see recheck). Here is the method: as §1, §2
Test [4] concerns the target T2, intact high molecular weight kininogen (HMWK) (Homo sapiens, UniProt P01042 19-644).
T2 construct: also called intact HMWK; 1-chain HMWK
T2 sequence: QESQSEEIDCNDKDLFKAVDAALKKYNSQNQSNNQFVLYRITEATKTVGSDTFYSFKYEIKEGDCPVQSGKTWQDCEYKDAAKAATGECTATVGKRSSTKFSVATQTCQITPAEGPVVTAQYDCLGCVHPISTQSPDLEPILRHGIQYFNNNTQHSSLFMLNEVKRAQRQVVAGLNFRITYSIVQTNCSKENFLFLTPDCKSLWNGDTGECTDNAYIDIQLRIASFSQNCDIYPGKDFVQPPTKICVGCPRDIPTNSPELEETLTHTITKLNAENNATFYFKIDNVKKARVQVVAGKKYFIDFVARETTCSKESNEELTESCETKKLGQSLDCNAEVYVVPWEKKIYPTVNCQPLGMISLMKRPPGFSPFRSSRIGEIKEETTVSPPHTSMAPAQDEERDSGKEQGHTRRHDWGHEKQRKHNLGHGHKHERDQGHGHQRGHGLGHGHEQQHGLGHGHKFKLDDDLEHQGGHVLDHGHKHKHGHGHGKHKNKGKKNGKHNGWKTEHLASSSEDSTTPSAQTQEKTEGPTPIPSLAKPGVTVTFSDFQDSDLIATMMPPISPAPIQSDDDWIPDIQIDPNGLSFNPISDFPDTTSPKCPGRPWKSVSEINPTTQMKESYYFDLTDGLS
Put plainly: sandwich ELISA: Fab coated on 96-well plate, kininogen titrated, detection 11H05 + 13B12 and goat anti-mouse-HRP; value = C, midpoint of the printed 4-P fit; 1-chain HMWK in SBT buffer; weak signal: only two points drawn (about 0.2 at 200, about 0.5 at 2000), fitted top 0.627 against 2.85 for 2-chain HMWK.
Text: as §3, §4

By EC50 is commonly meant the concentration giving half of the maximal effect.

B1: 559B-M0004-B04 (Fab, V domains shown)
VH: EVQLLESGGGLVQPGGSLRLSCAASGFTFSFYVMVWVRQAPGKGLEWVSGISPSGGNTAYADSVKGRFTISRDNSKNTLYLQMNSLRAEDTAVYYCARKLFYYDDTKGYFDFWGQGTLVTVSS
VL: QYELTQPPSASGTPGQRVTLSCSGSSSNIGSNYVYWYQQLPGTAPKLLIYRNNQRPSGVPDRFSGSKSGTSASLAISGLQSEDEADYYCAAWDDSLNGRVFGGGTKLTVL
notes: also called M004-B04
On to B1, for which the concentration for a half-maximal effect (EC50) amounted to 0.0123 µg/mL in test [1], 247 µg/mL in test [2], 0.00941 µg/mL in test [3] and 1110 µg/mL in test [4].
